{"source": "patent US9468682B2", "about": "“Compositions and methods for enhancing penetration of biologically active substances into tissues or organs” (Joint-stock company “High Tech”, priority 2013, dated 2016)", "key": {"[1]": {"experiment": "Franz diffusion cell skin permeability for insulin, antibiotics and mesotherapy components", "conditions": "FIG. 1; donor insulin 5 IU/ml or 0.25 mg/ml; HPLC", "source_text": "The receptor solution aliquots were collected at different intervals and analyzed using HPLC."}, "[2]": {"experiment": "Delivery through skin and mucous membranes in animals", "type": "in vivo", "conditions": "with ammonium sulfate; rats and guinea pigs"}, "[3]": {"experiment": "In vitro skin permeability, Franz diffusion cell, 3H-labeled substances", "conditions": "Table 4", "description": "The vertical Franz diffusion cell was used (PermeGear, Bethlehem, USA) with the effective diffusion surface of 2 cm^2.\nThe experiments were carried out using the skin of male species of Sprague-Dawley rats, weight 110-120 g, taken from the front abdominal wall. Hair and adipose tissue were removed from the skin; the skin was soaked in normal saline and placed into the diffusion cell. The following solutions labeled with ^3H in accordance with the standard method (Klimova et. al. 1993) were added into the donor chamber: complex of collagenolytic digestive protease from hydrobionts (Fermencol™, Table 3), Fe-superoxide dismutase from E. coli (Table 4) and fragments of rRNA 25-55 bases in length (Table 5)."}}}
{"molecule": "insulin", "values": [{"measurement": "Effect of further increase of ammonium sulfate concentration on insulin diffusion from donor to acceptor solution", "setting": "[1]", "result": "does not influence the effectiveness of insulin diffusion"}, {"measurement": "Delivery through skin and mucous membranes", "setting": "[2]", "result": "Positive results"}]}
{"molecule": "Fe-superoxide dismutase from E. coli: Fe-superoxide dismutase from E. coli, labeled with 3H (protein, UniProt P0AGD3 2-193, looked up, tritium (3H) label) Superoxide dismutase [Fe]: SFELPALPYAKDALAPHISAETIEYHYGKHHQTYVTNLNNLIKGTAFEGKSLEEIIRSSEGGVFNNAAQVWNHTFYWNCLAPNAGGEPTGKVAEAIAASFGSFADFKAQFTDAAIKNFGSGWTWLVKNSDGKLAIVSTSNAGTPLTTDATPLLTVDVWEHAYYIDYRNARPGYLEHFWALVNWEFVAKNLAA", "values": [{"measurement": "^3H-labeled marker in receptor medium, % from initial", "setting": "[3]; ammonium sulfate 0 M in donor medium, incubation 10 hrs", "result": 0.01, "unit": "%"}, {"measurement": "^3H-labeled marker in receptor medium, % from initial", "setting": "[3]; ammonium sulfate 0 M in donor medium, incubation 20 hrs", "result": 0.05, "unit": "%"}, {"measurement": "^3H-labeled marker in receptor medium, % from initial", "setting": "[3]; ammonium sulfate 0 M in donor medium, incubation 30 hrs", "result": 0.07, "unit": "%"}, {"measurement": "^3H-labeled marker in receptor medium, % from initial", "setting": "[3]; ammonium sulfate 0 M in donor medium, incubation 40 hrs", "result": 0.11, "unit": "%"}, {"measurement": "^3H-labeled marker in receptor medium, % from initial", "setting": "[3]; ammonium sulfate 0 M in donor medium, incubation 60 hrs", "result": 0.34, "unit": "%"}, {"measurement": "^3H-labeled marker in receptor medium, % from initial", "setting": "[3]; ammonium sulfate 0.1 M in donor medium, incubation 10 hrs", "result": 5.31, "unit": "%"}, {"measurement": "^3H-labeled marker in receptor medium, % from initial", "setting": "[3]; ammonium sulfate 0.1 M in donor medium, incubation 20 hrs", "result": 10.00, "unit": "%"}, {"measurement": "^3H-labeled marker in receptor medium, % from initial", "setting": "[3]; ammonium sulfate 0.1 M in donor medium, incubation 30 hrs", "result": 12.06, "unit": "%"}, {"measurement": "^3H-labeled marker in receptor medium, % from initial", "setting": "[3]; ammonium sulfate 0.1 M in donor medium, incubation 40 hrs", "result": 17.99, "unit": "%"}, {"measurement": "^3H-labeled marker in receptor medium, % from initial", "setting": "[3]; ammonium sulfate 0.1 M in donor medium, incubation 60 hrs", "result": 20.11, "unit": "%"}, {"measurement": "^3H-labeled marker in receptor medium, % from initial", "setting": "[3]; ammonium sulfate 0.2 M in donor medium, incubation 10 hrs", "result": 5.67, "unit": "%"}, {"measurement": "^3H-labeled marker in receptor medium, % from initial", "setting": "[3]; ammonium sulfate 0.2 M in donor medium, incubation 20 hrs", "result": 12.56, "unit": "%"}, {"measurement": "^3H-labeled marker in receptor medium, % from initial", "setting": "[3]; ammonium sulfate 0.2 M in donor medium, incubation 30 hrs", "result": 17.90, "unit": "%"}, {"measurement": "^3H-labeled marker in receptor medium, % from initial", "setting": "[3]; ammonium sulfate 0.2 M in donor medium, incubation 40 hrs", "result": 27.60, "unit": "%"}, {"measurement": "^3H-labeled marker in receptor medium, % from initial", "setting": "[3]; ammonium sulfate 0.2 M in donor medium, incubation 60 hrs", "result": 35.11, "unit": "%"}, {"measurement": "^3H-labeled marker in receptor medium, % from initial", "setting": "[3]; ammonium sulfate 0.5 M in donor medium, incubation 10 hrs", "result": 7.80, "unit": "%"}, {"measurement": "^3H-labeled marker in receptor medium, % from initial", "setting": "[3]; ammonium sulfate 0.5 M in donor medium, incubation 20 hrs", "result": 10.81, "unit": "%"}, {"measurement": "^3H-labeled marker in receptor medium, % from initial", "setting": "[3]; ammonium sulfate 0.5 M in donor medium, incubation 30 hrs", "result": 16.94, "unit": "%"}, {"measurement": "^3H-labeled marker in receptor medium, % from initial", "setting": "[3]; ammonium sulfate 0.5 M in donor medium, incubation 40 hrs", "result": 31.00, "unit": "%"}, {"measurement": "^3H-labeled marker in receptor medium, % from initial", "setting": "[3]; ammonium sulfate 0.5 M in donor medium, incubation 60 hrs", "result": 35.30, "unit": "%"}, {"measurement": "^3H-labeled marker in receptor medium, % from initial", "setting": "[3]; ammonium sulfate 1.0 M in donor medium, incubation 10 hrs", "result": 7.67, "unit": "%"}, {"measurement": "^3H-labeled marker in receptor medium, % from initial", "setting": "[3]; ammonium sulfate 1.0 M in donor medium, incubation 20 hrs", "result": 10.33, "unit": "%"}, {"measurement": "^3H-labeled marker in receptor medium, % from initial", "setting": "[3]; ammonium sulfate 1.0 M in donor medium, incubation 30 hrs", "result": 16.74, "unit": "%"}, {"measurement": "^3H-labeled marker in receptor medium, % from initial", "setting": "[3]; ammonium sulfate 1.0 M in donor medium, incubation 40 hrs", "result": 31.00, "unit": "%"}, {"measurement": "^3H-labeled marker in receptor medium, % from initial", "setting": "[3]; ammonium sulfate 1.0 M in donor medium, incubation 60 hrs", "result": 35.11, "unit": "%"}]}
